These results are taken from patent US20200199241A1 (Chugai, published 2020).

Sequences and labels used below:
B1: IgG1-F289 (antibody)
heavy: QVQLQESGPGLVKPSETLSLTCAVSGHSISHDHAWSWVRQPPGEGLEWIGFISYSGITNYNPSLQGRVTISRDNSKNTLYLQMNSLRAEDTAVYYCARSLARTTAMDYWGEGTLVTVSSASTKGPSVFPLAPSSKSTSGGTAALGCLVKDYFPEPVTVSWNSGALTSGVHTFPAVLQSSGLYSLSSVVTVPSSSLGTQTYICNVNHKPSNTKVDKKVEPKSCDKTHTCPPCPAPELLGGPSVFLFPPKPKDTLYISREPEVTCVVVDVSHEDPEVKFNWYVDGVEVHNAKTKPREEQYNSTYRVVSVLTVLHQDWLNGKEYKCKVSNKALPAPIEKTISKAKGQPREPQVYTLPPSRDELTKNQVSLTCLVKGFYPSDIAVEWESNGQPENNYKTTPPVLDSDGSFFLYSKLTVDKSRWQQGNVFSCSVYHEALHYHYTQKSLSLSP
light: not shown
notes: EU numbering; copies: 2 + 2
B2: IgG1-F307 (antibody)
heavy: B1 heavy with S241K, Y254W, E258T, V310P, E384A, Y430M
light: not shown
notes: EU numbering; copies: 2 + 2
B3: IgG1-F292 (antibody)
heavy: B1 heavy with S241K, E258T, V310P, E384A, Y430I
light: not shown
notes: EU numbering; copies: 2 + 2
B4: IgG1-F298 (antibody)
heavy: B1 heavy with E258T, Q313A, D314A
light: not shown
notes: EU numbering; copies: 2 + 2
B5: IgG1-F312 (antibody)
heavy: B1 heavy with S241K, Y254W, E258T, E382A, E384A, Y430F
light: not shown
notes: EU numbering; copies: 2 + 2
B6: IgG1-F310 (antibody)
heavy: B1 heavy with S241K, Y254W, E258T, V310P, E384A, Y430I
light: not shown
notes: EU numbering; copies: 2 + 2
B7: IgG1-F290 (antibody)
heavy: B1 heavy with E384A
light: not shown
notes: EU numbering; copies: 2 + 2
B8: IgG1-F320 (antibody)
heavy: B1 heavy with S241K, E258T, V310P, N327G, E384A, Y430I
light: not shown
notes: EU numbering; copies: 2 + 2
B9: IgG1-F299 (antibody)
heavy: B1 heavy with S241K, E258T, V310P, Q313A
light: not shown
notes: EU numbering; copies: 2 + 2
B10: IgG1-F318 (antibody)
heavy: B1 heavy with S241K, E258T, V310P, Y430I
light: not shown
notes: EU numbering; copies: 2 + 2
B11: IgG1-F313 (antibody)
heavy: B1 heavy with S241K, E258T, T309P
light: not shown
notes: EU numbering; copies: 2 + 2
B12: IgG1-F302 (antibody)
heavy: B1 heavy with T309P, Y430M
light: not shown
notes: EU numbering; copies: 2 + 2
B13: IgG1-F315 (antibody)
heavy: B1 heavy with S241K, E258T
light: not shown
notes: EU numbering; copies: 2 + 2
B14: IgG1-F297 (antibody)
heavy: B1 heavy with E258T, D314A
light: not shown
notes: EU numbering; copies: 2 + 2
B15: IgG1-F316 (antibody)
heavy: B1 heavy with S241K, E258T, D272F
light: not shown
notes: EU numbering; copies: 2 + 2
B16: IgG1-F301 (antibody)
heavy: B1 heavy with S241K, E258T, V310P, Q313A, D314A
light: not shown
notes: EU numbering; copies: 2 + 2
B17: IgG1-F304 (antibody)
heavy: B1 heavy with Y254W, E258T, V310P
light: not shown
notes: EU numbering; copies: 2 + 2
B18: IgG1-F296 (antibody)
heavy: B1 heavy with E258T, Q313A
light: not shown
notes: EU numbering; copies: 2 + 2
B19: IgG1-F322 (antibody)
heavy: B1 heavy with S241K, E258T, D272F, T309P, V310P, Y430M
light: not shown
notes: EU numbering; copies: 2 + 2
B20: IgG1-F305 (antibody)
heavy: B1 heavy with V310P, E384A, Y430M
light: not shown
notes: EU numbering; copies: 2 + 2
B21: IgG1-F326 (antibody)
heavy: B1 heavy with S241K, E258T, D272F, T309Q, Q313A, Y430M
light: not shown
notes: EU numbering; copies: 2 + 2
B22: IgG1-F308 (antibody)
heavy: B1 heavy with S241K, Y254W, E258T, V310P, E384A
light: not shown
notes: EU numbering; copies: 2 + 2
B23: IgG1-F323 (antibody)
heavy: B1 heavy with S241K, D272F, V310P, Y430M
light: not shown
notes: EU numbering; copies: 2 + 2
B24: IgG1-F331 (antibody)
heavy: B1 heavy with S241K, E258T, D272F, V310P, P389E, Y430M
light: not shown
notes: EU numbering; copies: 2 + 2
B25: IgG1-F328 (antibody)
heavy: B1 heavy with S241K, E258T, D272F, V310P, Y430I
light: not shown
notes: EU numbering; copies: 2 + 2
B26: IgG1-F324 (antibody)
heavy: B1 heavy with S241K, E258T, D272F, T309Q, V310P, Y430M
light: not shown
notes: EU numbering; copies: 2 + 2
B27: IgG1-F330 (antibody)
heavy: B1 heavy with S241K, E258T, D272F, V310P, L311E, Y430M
light: not shown
notes: EU numbering; copies: 2 + 2
B28: IgG1-F295 (antibody)
heavy: B1 heavy with S241K, E258T, E382A, E384A, Y430F
light: not shown
notes: EU numbering; copies: 2 + 2
B29: IgG1-F314 (antibody)
heavy: B1 heavy with Q313A, D314A
light: not shown
notes: EU numbering; copies: 2 + 2
B30: IgG1-F321 (antibody)
heavy: B1 heavy with S241K, E258T, D272F, V310P, N327G, Y430M
light: not shown
notes: EU numbering; copies: 2 + 2
B31: IgG1-F306 (antibody)
heavy: B1 heavy with Y254W, E258T, V310P, E384A, Y430M
light: not shown
notes: EU numbering; copies: 2 + 2
B32: IgG1-F325 (antibody)
heavy: B1 heavy with S241K, E258T, D272F, T309Q, V310P, Q313A, Y430M
light: not shown
notes: EU numbering; copies: 2 + 2
B33: IgG1-F300 (antibody)
heavy: B1 heavy with S241K, E258T, V310P, D314A
light: not shown
notes: EU numbering; copies: 2 + 2
B34: IgG1-F317 (antibody)
heavy: B1 heavy with S241K, E258T, D272F, V310P
light: not shown
notes: EU numbering; copies: 2 + 2
B35: IgG1-F303 (antibody)
heavy: B1 heavy with E258T, T309P
light: not shown
notes: EU numbering; copies: 2 + 2
B36: IgG1-F333 (antibody)
heavy: B1 heavy with S241K, E258T, D272F, T309Q, L311E, Q313A, Y430M
light: not shown
notes: EU numbering; copies: 2 + 2
B37: IgG1-F294 (antibody)
heavy: B1 heavy with S241K, E258T, V310P, Y430F
light: not shown
notes: EU numbering; copies: 2 + 2
B38: IgG1-F293 (antibody)
heavy: B1 heavy with E258T, V310P, E382A, E384A, Y430I
light: not shown
notes: EU numbering; copies: 2 + 2
B39: IgG1-F311 (antibody)
heavy: B1 heavy with S241K, Y254W, E258T, V310P, Y430F
light: not shown
notes: EU numbering; copies: 2 + 2

Substitutions are numbered along the chain they refer to.

In the assay the target is T1, human FcRn (soluble human FcRn complexed with β2-microglobulin) (human, UniProt P61769 21-119, limits assumed).
T1 construct: also called hFcRn
T1 sequence (chain, as listed by the source limits assumed, chain 1 of 2): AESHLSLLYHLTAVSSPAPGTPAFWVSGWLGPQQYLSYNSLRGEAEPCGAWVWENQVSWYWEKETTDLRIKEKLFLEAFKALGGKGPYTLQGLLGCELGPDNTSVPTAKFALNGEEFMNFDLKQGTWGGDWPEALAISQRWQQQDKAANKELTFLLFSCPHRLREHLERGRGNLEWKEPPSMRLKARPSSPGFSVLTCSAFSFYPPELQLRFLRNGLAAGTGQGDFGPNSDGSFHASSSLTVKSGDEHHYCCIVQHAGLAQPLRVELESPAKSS
T1 sequence (P61769 21-119 limits assumed, chain 2 of 2): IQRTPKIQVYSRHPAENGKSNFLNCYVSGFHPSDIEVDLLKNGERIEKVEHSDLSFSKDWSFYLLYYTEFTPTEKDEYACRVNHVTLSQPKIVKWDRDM
Put plainly: SPR, pH 7.0.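 Note: antibodies captured on a Protein L sensor chip with human FcRn injected as analyte, KD calculated from fitted association and dissociation rate constants.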
As to B1, binding was characterised by a dissociation constant (Kd) of 480 nM. With B2 the figure was 36 nM. With B3 the figure was 23 nM. In the case of B4 it was 480 nM; in that of B5, 450 nM; in that of B6, 94 nM.

Consider B7, for which the Kd is 460 nM. With B8 the figure was 20 nM.

In turn, B9 returned a Kd of 94 nM. With B10 the figure was 18 nM; with B11, 650 nM. In the case of B12 it was 190 nM. With B13 the figure was 680 nM; with B14, 510 nM.

As for B15, the Kd was found to be 700 nM.

As for B16, the Kd turned out to be 72 nM. In the case of B17 it was 16 nM; in that of B18, 490 nM. Turning to B19, binding was put at a Kd of 92 nM.

On to B20, for which the dissociation constant (Kd) came to 27 nM. With B21 the figure was 75 nM; with B22, 19 nM; with B23, 27 nM.

The molecule B24 returned a Kd of 30 nM.

The molecule B25 came in with a dissociation constant Kd of 19 nM. In the case of B26 it was 28 nM. B27 had a dissociation constant Kd of 36 nM.

Consider B28, for which the affinity, expressed as Kd, was 680 nM. B29 displayed an equilibrium dissociation constant (Kd) of 320 nM. With B30 the figure was 32 nM; with B31, 36 nM; with B32, 21 nM.

As to B33, binding was characterised by a dissociation constant (Kd) of 83 nM. On to B34, for which the dissociation constant Kd was 110 nM. In the case of B35 it was 670 nM; in that of B36, 74 nM; in that of B37, 110 nM. On to B38, for which the dissociation constant (Kd) amounted to 53 nM. As for B39, the equilibrium dissociation constant (Kd) was found to be 28 nM.

As usually defined, the Kd is the equilibrium constant for the complex coming apart.
